{"source": "patent US20240425569A1", "about": "(VISTERRA, published 2024)", "key": {"[1]": {"molecular_target": "T1, Venezuela/2008 (serotype IV EDIII)", "T1 E protein domain III (EDIII)": "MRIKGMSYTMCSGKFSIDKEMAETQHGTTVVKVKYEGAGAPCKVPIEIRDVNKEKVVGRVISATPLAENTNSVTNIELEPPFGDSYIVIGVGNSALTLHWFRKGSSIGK", "experiment": "ELISA; row Venezuela/2008, serotype IV, genotype IIa"}, "[2]": {"molecular_target": "T2, Singapore/2010 (serotype IV EDIII)", "T2 construct": "also called ED3-DV4/Sing10; DENV-4 Sing", "T2 E protein domain III (EDIII)": "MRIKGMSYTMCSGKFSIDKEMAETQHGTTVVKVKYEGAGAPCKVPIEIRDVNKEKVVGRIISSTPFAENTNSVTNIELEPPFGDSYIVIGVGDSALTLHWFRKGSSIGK", "experiment": "Kd table, method not stated; Ag DENV-4 Sing"}, "[3]": {"molecular_target": "T3, EDIII-DV3 (E protein domain III of dengue virus serotype DV-3) (dengue virus serotype DV-3, UniProt P27915 571-678)", "T3 construct": "also called DENV-3; EDIII of DV-3", "T3 sequence (P27915 571-678, tags left off)": "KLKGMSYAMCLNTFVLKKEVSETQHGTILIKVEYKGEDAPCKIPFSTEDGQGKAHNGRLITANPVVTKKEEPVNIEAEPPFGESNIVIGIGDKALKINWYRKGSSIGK"}, "[4]": {"molecular_target": "T4, Hawaii/1944* (serotype I EDIII) (Dengue virus 1)", "T4 construct": "isolated EDIII protein; also called EDIII of DENV-1 Hawaii/1944", "experiment": "ELISA; row Hawaii/1944*, serotype I, genotype I"}, "[5]": {"molecular_target": "ED3-DV4/H241/Phil56 (EDIII of DENV-4 strain H241) (dengue virus serotype DENV-4, strain …, UniProt Q58HT7 572-679)", "experiment": "ELISA; row Philippines/1956 (H241)*, serotype IV, genotype I"}, "[6]": {"molecular_target": "T5, Brazil/2011 (serotype IV EDIII)", "T5 E protein domain III (EDIII)": "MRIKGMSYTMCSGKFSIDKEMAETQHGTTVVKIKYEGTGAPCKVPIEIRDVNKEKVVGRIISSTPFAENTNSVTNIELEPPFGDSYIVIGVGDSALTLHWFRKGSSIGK", "experiment": "SPR; row Brazil/2011, serotype IV, genotype I"}, "[7]": {"molecular_target": "T6, Vietnam/2008 (serotype I EDIII)", "T6 construct": "also called ED3-DV1/Viet08", "T6 E protein domain III (EDIII)": "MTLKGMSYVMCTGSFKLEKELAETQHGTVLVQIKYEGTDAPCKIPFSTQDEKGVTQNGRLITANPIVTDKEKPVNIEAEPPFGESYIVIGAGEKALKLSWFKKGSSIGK"}, "[8]": {"molecular_target": "T7, New Guinea/1944 (NGC)* (serotype II EDIII) (Dengue virus 2)", "T7 construct": "isolated EDIII protein; also called EDIII of DENV-2 NGC", "T7 sequence (P14340 578-673)": "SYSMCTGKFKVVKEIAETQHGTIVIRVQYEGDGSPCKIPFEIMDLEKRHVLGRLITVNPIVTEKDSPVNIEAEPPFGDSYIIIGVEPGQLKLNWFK", "experiment": "ELISA; row New Guinea/1944 (NGC)*, serotype II, genotype Asian I"}}, "data": [{"binder": "antibody D88 (antibody, V domains shown, also called mAb D88) VH: QVQLVQSGAEVKKPGASVKVSCKAGFNIKDVYMSWVRQAPEQGLEWMGRIDPENGDTKYDPKLQGRVTMTADTSTNTAYMELRSLRSDDTAVYYCARGWEGFAYWGQGTLVTVSS VL: DIVMTQSPASLAVSLGERATISCRASENVDKYGNSFMHWYQQKPGQPPKLLIYRASELQWGVPDRFSGSGSGTDFTLTISSLQAEDVAVYYCQRSNEVPWTFGQGTKLEIK", "values": [{"measurement": "Kd", "setting": "[1]", "result": 4.5, "unit": "nM"}, {"measurement": "Kd", "setting": "[2]", "result": 8.4, "unit": "nM"}, {"measurement": "Kd", "setting": "[3]", "result": 1, "unit": "nM"}, {"measurement": "Kd", "setting": "[4]", "result": "< 0.1", "unit": "nM"}, {"measurement": "Kd", "setting": "[5]", "result": 113, "unit": "nM"}, {"measurement": "Kd", "setting": "[6]", "result": 7.9, "unit": "nM"}, {"measurement": "Kd", "setting": "[7]", "result": 0.031, "unit": "nM"}, {"measurement": "Kd", "setting": "[8]", "result": "< 0.1", "unit": "nM"}]}]}
